What was measured:
[1] = target: T1, TbDHSc-TbDHSp (Trypanosoma brucei, UniProt Q38BX0+Q4GZD1); experiment: [3H]spermidine incorporation into eIF5A, nitrocellulose filter binding assay; type: biochemical
T1 construct: gene DHSc; His6-SUMO-TbDHSc co-expressed with tagless TbDHSp in E. coli; SUMO tag cut with Ulp1, tag-free; 50 kDa + 37 kDa; 2:2 heterotetramer, 175 kDa
T1 sequence (Q38BX0 1-461): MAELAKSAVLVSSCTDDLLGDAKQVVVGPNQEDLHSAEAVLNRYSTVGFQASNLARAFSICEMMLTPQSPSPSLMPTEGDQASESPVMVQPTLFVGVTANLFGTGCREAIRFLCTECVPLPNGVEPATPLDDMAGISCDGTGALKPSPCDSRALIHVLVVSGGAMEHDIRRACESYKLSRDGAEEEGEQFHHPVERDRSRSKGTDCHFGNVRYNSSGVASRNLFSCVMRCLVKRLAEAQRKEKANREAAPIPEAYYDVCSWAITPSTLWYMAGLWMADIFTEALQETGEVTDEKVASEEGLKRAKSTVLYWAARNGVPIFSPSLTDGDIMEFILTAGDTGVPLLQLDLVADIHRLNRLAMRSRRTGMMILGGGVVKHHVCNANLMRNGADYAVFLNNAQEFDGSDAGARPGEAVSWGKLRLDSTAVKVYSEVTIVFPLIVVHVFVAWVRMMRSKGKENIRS
T1 sequence (Q4GZD1 1-342): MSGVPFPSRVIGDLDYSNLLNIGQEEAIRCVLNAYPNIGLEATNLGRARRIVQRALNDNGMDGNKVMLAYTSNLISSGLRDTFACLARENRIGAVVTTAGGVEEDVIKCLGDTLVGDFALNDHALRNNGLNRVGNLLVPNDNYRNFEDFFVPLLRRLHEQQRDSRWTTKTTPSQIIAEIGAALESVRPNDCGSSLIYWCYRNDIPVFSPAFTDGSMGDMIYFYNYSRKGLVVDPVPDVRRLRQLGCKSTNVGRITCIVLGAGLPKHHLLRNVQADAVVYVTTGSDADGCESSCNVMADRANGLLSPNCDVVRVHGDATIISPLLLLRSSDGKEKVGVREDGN
Source text: [3H]spermidine incorporation into eIF5A, nitrocellulose filter binding assay on TbDHSc-TbDHSp | GC7 inhibited the activity of TbDHSc-TbDBHSp and the growth of BSF cells at similar concentrations

[2] = substrate: NCCCCNCCCN; experiment: as above; type: biochemical, Trypanosoma brucei; conditions: 1 mM NAD+, 100 μM TbeIF5A, pH 9.3 glycine-NaOH, 37 °C, 1 mM DTT, labelled compound
Source text: (§1) [3H]spermidine incorporation into eIF5A, nitrocellulose filter binding assay on TbDHSc-TbDHSp

[3] = substrate: NC(=O)c1ccc[n+]([C@@H]2O[C@H](COP(=O)(O)OP(=O)(O)OC[C@H]3O[C@@H](n4cnc5c(N)ncnc54)[C@H](O)[C@@H]3O)[C@@H](O)[C@H]2O)c1; experiment: as above; type: biochemical, Trypanosoma brucei; conditions: 100 μM TbeIF5A, 100 μM spermidine, pH 9.3 glycine-NaOH, 37 °C, 1 mM DTT, varied: cofactor
Source text: as §1

[4] = target: T2, TbDHSc (T. brucei deoxyhypusine synthase, catalytic subunit), recombinant, expressed as His6-SUMO-TbDHSc (T. brucei, UniProt Q38BX0 1-461); experiment: AUC; sedimentation velocity of the purified TbDHSc-TbDHSp complex at A280 0.7, 0.2 and 0.05 in 50 mM Hepes, 150 mM NaCl, pH 8.0; 20 °C, 40,000 rpm; interference data analysed with SEDFIT c(s); conditions: both partners purified
T2 construct: T. brucei deoxyhypusine synthase catalytic subunit (TbDHSc), TriTrypDB Tb927.10.2750; open reading frame cloned into pE-SUMO Kan; 50 kDa on SDS-PAGE; it was removed with Ulp1 before gel filtration and sedimentation velocity; not shown: His6-SUMO, N-terminal, cleaved
T2 sequence (looked up): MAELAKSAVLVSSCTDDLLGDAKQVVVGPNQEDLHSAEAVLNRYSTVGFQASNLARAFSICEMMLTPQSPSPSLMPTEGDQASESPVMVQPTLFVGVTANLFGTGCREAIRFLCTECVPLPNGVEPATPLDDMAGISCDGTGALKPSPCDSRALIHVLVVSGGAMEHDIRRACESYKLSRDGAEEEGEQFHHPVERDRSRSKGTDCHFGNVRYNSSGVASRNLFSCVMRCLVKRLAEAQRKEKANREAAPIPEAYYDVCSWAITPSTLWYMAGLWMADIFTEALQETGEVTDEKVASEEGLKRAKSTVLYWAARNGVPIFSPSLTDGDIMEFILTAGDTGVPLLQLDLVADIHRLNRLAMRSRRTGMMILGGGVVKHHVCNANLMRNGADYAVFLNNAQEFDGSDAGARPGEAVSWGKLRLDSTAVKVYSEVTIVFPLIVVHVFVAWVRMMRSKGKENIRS

N=C(N)NCCCCCCCN [GC7]
IC50 [1]: 1500 ± 150 nM

B1: TbDHSc-TbDHSp (Trypanosoma brucei brucei TREU927) (protein)
chain 1: MAELAKSAVLVSSCTDDLLGDAKQVVVGPNQEDLHSAEAVLNRYSTVGFQASNLARAFSICEMMLTPQSPSPSLMPTEGDQASESPVMVQPTLFVGVTANLFGTGCREAIRFLCTECVPLPNGVEPATPLDDMAGISCDGTGALKPSPCDSRALIHVLVVSGGAMEHDIRRACESYKLSRDGAEEEGEQFHHPVERDRSRSKGTDCHFGNVRYNSSGVASRNLFSCVMRCLVKRLAEAQRKEKANREAAPIPEAYYDVCSWAITPSTLWYMAGLWMADIFTEALQETGEVTDEKVASEEGLKRAKSTVLYWAARNGVPIFSPSLTDGDIMEFILTAGDTGVPLLQLDLVADIHRLNRLAMRSRRTGMMILGGGVVKHHVCNANLMRNGADYAVFLNNAQEFDGSDAGARPGEAVSWGKLRLDSTAVKVYSEVTIVFPLIVVHVFVAWVRMMRSKGKENIRS
chain 2: MSGVPFPSRVIGDLDYSNLLNIGQEEAIRCVLNAYPNIGLEATNLGRARRIVQRALNDNGMDGNKVMLAYTSNLISSGLRDTFACLARENRIGAVVTTAGGVEEDVIKCLGDTLVGDFALNDHALRNNGLNRVGNLLVPNDNYRNFEDFFVPLLRRLHEQQRDSRWTTKTTPSQIIAEIGAALESVRPNDCGSSLIYWCYRNDIPVFSPAFTDGSMGDMIYFYNYSRKGLVVDPVPDVRRLRQLGCKSTNVGRITCIVLGAGLPKHHLLRNVQADAVVYVTTGSDADGCESSCNVMADRANGLLSPNCDVVRVHGDATIISPLLLLRSSDGKEKVGVREDGN
notes: His6-SUMO-TbDHSc co-expressed with tagless TbDHSp in E. coli; SUMO tag cut with Ulp1, tag-free; 50 kDa + 37 kDa; 2:2 heterotetramer, 175 kDa
Km [2]: 43 ± 5 µM | kcat [2]: 0.015 ± 0.001 s⁻¹ | Km [3]: 82 ± 16 µM | kcat [3]: 0.018 ± 0.001 s⁻¹

B2: TbDHSp (T. brucei deoxyhypusine synthase prozyme (activating) subunit), recombinant, untagged (natural protein, UniProt Q4GZD1 1-342, looked up)
chain: MSGVPFPSRVIGDLDYSNLLNIGQEEAIRCVLNAYPNIGLEATNLGRARRIVQRALNDNGMDGNKVMLAYTSNLISSGLRDTFACLARENRIGAVVTTAGGVEEDVIKCLGDTLVGDFALNDHALRNNGLNRVGNLLVPNDNYRNFEDFFVPLLRRLHEQQRDSRWTTKTTPSQIIAEIGAALESVRPNDCGSSLIYWCYRNDIPVFSPAFTDGSMGDMIYFYNYSRKGLVVDPVPDVRRLRQLGCKSTNVGRITCIVLGAGLPKHHLLRNVQADAVVYVTTGSDADGCESSCNVMADRANGLLSPNCDVVRVHGDATIISPLLLLRSSDGKEKVGVREDGN
notes: T. brucei deoxyhypusine synthase prozyme subunit (TbDHSp), catalytically dead paralog, TriTrypDB Tb927.1.870; open reading frame cloned untagged into the HindIII-KpnI site of pT7-FLAG-MAT-Tag-2 with a stop codon inserted; 37 kDa on SDS-PAGE; the vector's C-terminal tag was removed by insertion of a stop codon; also called tagless TbDHSp; untagged TbDHSp
stoichiometry N [4]: 1 TbDHSp per TbDHSc (2:2 heterotetramer)

Reference: publication PMC3663545, “Allosteric Activation of Trypanosomatid Deoxyhypusine Synthase by a Catalytically Dead Paralog*^([image sbox.jpg])^♦” (The Journal of Biological Chemistry, 2013)
